Assay results from US9266940 (Novo Nordisk, dated 2016).
Numbered stars: 1 amine (or outer) side, 2 acyl side, 3 side chain; on linkers, the order of the positions; unused ones are H or OH. Square brackets hold non-standard residues; d marks the D form. Side chains are listed from the residue outwards. Ends that are not written are not given here. * marks the point of attachment. Decanoyl(10-(4-HOOC-PhO)) = O=C(O)c1ccc(OCCCCCCCCCC(=O)*)cc1; γGlu = O=C(O)[C@H](CCC(=O)[*:2])N[*:1]; C14 diacid = O=C(O)CCCCCCCCCCCCC(=O)*; AEEA = NCCOCCOCC(=O)O; Aib = CC(C)(N)C(=O)O

Experiments:
[1] = molecular target: T1, human GLP-1 receptor (human, UniProt P43220 24-463); assay: SPA displacement assay; IC50 at 2.0% HSA over IC50 at 0.001% HSA
T1 construct: whole, on cells; Used as purified plasma membranes of the stably transfected BHK cell line, not as intact cells; also called hGLP-1
Method: (§1) A shift in the binding affinity, $IC50$, is an indication that the peptide in question binds to albumin, and thereby a prediction of a potential protracted pharmacokinetic profile of the peptide in question in animal models.
(§2) 50 ul (micro liter) HSA ("high albumin" experiment containing 2% HSA), or buffer ("low albumin" experiment containing 0.001% HSA), was added to Optiplate, and 25 ul of test compounds were added. 5-10 ug membrane protein/sample was added (50 ul) corresponding to 0.1-0.2 mg protein/ml (to be preferably optimised for each membrane preparation). SPA-particles (Wheatgerm agglutinin SPA beads, Perkin Elmer, #RPNQ0001) were added in an amount of 0.5 mg/well (50 ul). […] The plates were sealed with PlateSealer and incubated for 120 minutes at 30° C. while shaking. The plates were centrifuged (1500 rpm, 10 min) and counted in Topcounter.

[2] = molecular target: T1, human GLP-1 receptor; assay: SPA, displacement of 125I-GLP-1(7-36)NH2 from hGLP-1R BHK membranes, low HSA (0.001%)
Method: as §1, §2

[3] = molecular target: T1, human GLP-1 receptor; assay: SPA, displacement of 125I-GLP-1(7-36)NH2 from hGLP-1R BHK membranes, high HSA (2.0%)
Method: as §1, §2

[4] = molecular target: T1, human GLP-1 receptor; assay: cell-based or functional assay

Binder	Ratio [(IC50/nM) high HSA]/[(IC50/nM) low HSA] [1]	IC50 [2] [nM]	IC50 [3] [nM]	EC50/pM (in vitro potency, cAMP formation, AlphaScreen) [4] [pM]
HAEGTFTSDVSSYLEK([γGlu-AEEA-AEEA-C14 diacid])QAARK([γGlu-AEEA-AEEA-C14 diacid])FIAHLVG (also called 14)	306	1.45	443	42
H[Aib]EGTFTSDVSSYK([AEEA-AEEA-γGlu-Decanoyl(10-(4-HOOC-PhO))])EEQAARK([AEEA-AEEA-γGlu-Decanoyl(10-(4-HOOC-PhO))])FIEWLVG	79	5.68	446	468
HAEGTFTSDVSSYLEEQK([AEEA-AEEA-γGlu-Decanoyl(10-(4-HOOC-PhO))])ARK([AEEA-AEEA-γGlu-Decanoyl(10-(4-HOOC-PhO))])FIAHLVG (also called 25)	3.5	10.9	39	380
H[Aib]EGTFTSDVSSYLEK([AEEA-AEEA-γGlu-C14 diacid])QAVRK([AEEA-AEEA-γGlu-C14 diacid])FIAHLVRGRG	174	0.12	21	9
H[Aib]EGTFTSDVSSYLEGQAVRK([AEEA-AEEA-γGlu-C14 diacid])FIAHLVQGRK([AEEA-AEEA-γGlu-C14 diacid]) (also called 15)	155	0.19	29	5
H[Aib]EGTFTSDVSSYLEK([AEEA-AEEA-γGlu-C14 diacid])QAVRK([AEEA-AEEA-γGlu-C14 diacid])FIAWLVR	57	1.41	80	159
H[Aib]EGTFTSDVSSYLEK([AEEA-AEEA-γGlu-C14 diacid])QAARK([AEEA-AEEA-γGlu-C14 diacid])FIAHLVG (also called 19)	60	2.38	143	52
HAEGTFTSDVSSYLEEQAARK([AEEA-AEEA-γGlu-Decanoyl(10-(4-HOOC-PhO))])FIEWLVRGK([AEEA-AEEA-γGlu-Decanoyl(10-(4-HOOC-PhO))])GEG	821	0.39	320	43
HAEGTFTSDVSSYLEEQAARK([AEEA-AEEA-γGlu-Decanoyl(10-(4-HOOC-PhO))])FIAWLVRGK([AEEA-AEEA-γGlu-Decanoyl(10-(4-HOOC-PhO))]) (ends and bridges not checked)	101	0.29	29	62
H[Aib]EGTFTSDVSSYLEK([AEEA-AEEA-γGlu-C14 diacid])QAVRK([AEEA-AEEA-γGlu-C14 diacid])FIAWLVRG	157	0.38	60	242
H[Aib]EGTK([AEEA-AEEA-γGlu-C14 diacid])TSDVSSYLEEQAARK([AEEA-AEEA-γGlu-C14 diacid])FIAHLVQGRG (also called 18)	2.1	373	789	3020
